Reference: US20260266848A1, “COMPOSITIONS AND METHODS FOR DIAGNOSING AND TREATING DYSTONIA” (Duke University, priority 2023, published 2026)

B1: Dhx15 (protein, UniProt O35286 1-795, looked up)
ATP-dependent RNA helicase …: MSKRHRLDLGEDYPSGKKRAGTDGKDRERDRDREDRSKDRDRERDRGDREREREKEKEKELRASTNAMLISAGLPPLKASHSAHSTHSAHSTHSTHSAHSTHTGHTGHTSLPQCINPFTNLPHTPRYYDILKKRLQLPVWEYKDRFTDILVRHQSFVLVGETGSGKTTQIPQWCVEYMRSLPGPKRGVACTQPRRVAAMSVAQRVADEMDVMLGQEVGYSIRFEDCSSAKTILKYMTDGMLLREAMNDPLLERYGVIILDEAHERTLATDILMGVLKEVVRQRSDLKVIVMSATLDAGKFQIYFDNCPLLTIPGRTHPVEIFYTPEPERDYLEAAIRTVIQIHMCEEEEGDLLLFLTGQEEIDEACKRIKREVDDLGPEVGDIKIIPLYSTLPPQQQQRIFEPPPPKKQNGAIGRKVVVSTNIAETSLTIDGVVFVIDPGFAKQKVYNPRIRVESLLVTAISKASAQQRAGRAGRTRPGKCFRLYTEKAYKTEMQDNTYPEILRSNLGSVVLQLKKLGIDDLVHFDFMDPPAPETLMRALELLNYLAALNDDGDLTELGSMMAEFPLDPQLAKMVIASCDYNCSNEVLSITAMLSVPQCFVRPTEAKKAADEAKMRFAHIDGDHLTLLNVYHAFKQNHESVQWCYDNFINYRSLMSADNVRQQLSRIMDRFNLPRRSTDFTSRDYYINIRKALVTGYFMQVAHLERTGHYLTVKDNQVVQLHPSTVLDHKPEWVLYNEFVLTTKNYIRTCTDIKPEWLVKIAPQYYDMSNFPQCEAKRQLDRIIAKLQSKEYSQY
B2: Mvd (protein, UniProt P53602 2-400, looked up)
Diphosphomevalonate …: ASEKPLAAVTCTAPVNIAVIKYWGKRDEELVLPINSSLSVTLHQDQLKTTTTAVISKDFTEDRIWLNGREEDVGQPRLQACLREIRCLARKRRNSRDGDPLPSSLSCKVHVASVNNFPTAAGLASSAAGYACLAYTLARVYGVESDLSEVARRGSGSACRSLYGGFVEWQMGEQADGKDSIARQVAPESHWPELRVLILVVSAEKKLTGSTVGMRASVETSPLLRFRAESVVPARMAEMARCIRERDFPSFAQLTMKDSNQFHATCLDTFPPISYLNAISWRIIHLVHRFNAHHGDTKVAYTFDAGPNAVIFTLDDTVAEFVAAVWHGFPPGSNGDTFLKGLQVRPAPLSAELQAALAMEPTPGGVKYIIVTQVGPGPQILDDPCAHLLGPDGLPKPAA
B3: Ap3d1 (protein, UniProt O54774 2-1199, looked up)
AP-3 complex subunit delta-1: ALKMVKGSIDRMFDKNLQDLVRGIRNHKEDEAKYISQCIDEIKQELKQDNIAVKANAVCKLTYLQMLGYDISWAAFNIIEVMSASKFTFKRVGYLAASQCFHEGTDVIMLTTNQIRKDLSSPSQYDTGVALTGLSCFVTPDLARDLANDIMTLMSHTKPYIRKKAVLIMYKVFLKYPESLRPAFPRLKEKLEDPDPGVQSAAVNVICELARRNPKNYLSLAPLFFKLMTSSTNNWVLIKIIKLFGALTPLEPRLGKKLIEPLTNLIHSTSAMSLLYECVNTVIAVLISLSSGMPNHSASIQLCVQKLRILIEDSDQNLKYLGLLAMSKILKTHPKSVQSHKDLILQCLDDKDESIRLRALDLLYGMVSKKNLMEIVKKLMTHVDKAEGTTYRDELLTKIIDICSQSNYQHITNFEWYISILVELTRLEGTRHGHLIAAQMLDVAIRVKAIRKFAVSQMSSLLDSAHLVASSTQRNGICEVLYAAAWICGEFSEHLQGPQQTLEAMLRPKVTTLPGHIQAVYVQNVVKLYASILQQKEQAADTEAAQEVTQLLVERLPQFVQSADLEVQERASCILQLVKHVQKLQAKGVPVAEEVSALFAGELNPVAPKAQKKVPVPEGLDLDAWINEPPSDSESEDEKPKAIFHEEEPRHTRRRQPEEDEEELARRREARKQEQANNPFYIKSSPSPQKRYQDAPGVEHIPVVQIDLSVPLKVPGMPMSDQYVKLEEQRRHRQRLEKDKKRKKKEKGKRRHSSLPTESDEDIAPAQRVDIITEEMPENALPSDEDDKDPNDPYRALDIDLDKPLADSEKLPVQKHRNAEAVKSPEKEGVLGVEKKSKKPKKKEKKTKEREREKKDKKGEDLDFWLSTTPPPAAAPIPAPSTEELAASTITSPKDECEVLKGEEEDHVDHDQERKSSRHKKKKHRKEKEKEERPRDKKKAKKKQVAPLENGAAAEEEEEPIPPMSSYCLLAESPYIKVTYDIQASLQKDSQVTVSIILENQSSSFLKNMELNVLDSLNTKMTRPEGSSVHDGVPVPFQLPPGVSNEAQFVFTIQSIVMAQKLKGTLSFIAKDDEGATHEKLDFRLHFSCSSYLITTPCYSDAFAKLLESGDLSMNSIKVDGISMSFQNLLAKICFYHHFSVVERVDSCASMYSRSIQGHHVCLLVKKGESSVSVDGKCSDATLLSSLLEEMKTTLAQC
B4: HNRNPC (protein, UniProt P07910 2-306, looked up)
Heterogeneous nuclear …: ASNVTNKTDPRSMNSRVFIGNLNTLVVKKSDVEAIFSKYGKIVGCSVHKGFAFVQYVNERNARAAVAGEDGRMIAGQVLDINLAAEPKVNRGKAGVKRSAAEMYGSVTEHPSPSPLLSSSFDLDYDFQRDYYDRMYSYPARVPPPPPIARAVVPSKRQRVSGNTSRRGKSGFNSKSGQRGSSKSGKLKGDDLQAIKKELTQIKQKVDSLLENLEKIEKEQSKQAVEMKNDKSEEEQSSSSVKKDETNVKMESEGGADDSAEEGDLLDDDDNEDRGDDQLELIKDDEKEAEEGEDDRDSANGEDDS
B5: ZYX (protein, UniProt Q15942 2-572, looked up)
Zyxin: AAPRPSPAISVSVSAPAFYAPQKKFGPVVAPKPKVNPFRPGDSEPPPAPGAQRAQMGRVGEIPPPPPEDFPLPPPPLAGDGDDAEGALGGAFPPPPPPIEESFPPAPLEEEIFPSPPPPPEEEGGPEAPIPPPPQPREKVSSIDLEIDSLSSLLDDMTKNDPFKARVSSGYVPPPVATPFSSKSSTKPAAGGTAPLPPWKSPSSSQPLPQVPAPAQSQTQFHVQPQPQPKPQVQLHVQSQTQPVSLANTQPRGPPASSPAPAPKFSPVTPKFTPVASKFSPGAPGGSGSQPNQKLGHPEALSAGTGSPQPPSFTYAQQREKPRVQEKQHPVPPPAQNQNQVRSPGAPGPLTLKEVEELEQLTQQLMQDMEHPQRQNVAVNELCGRCHQPLARAQPAVRALGQLFHIACFTCHQCAQQLQGQQFYSLEGAPYCEGCYTDTLEKCNTCGEPITDRMLRATGKAYHPHCFTCVVCARPLEGTSFIVDQANRPHCVPDYHKQYAPRCSVCSEPIMPEPGRDETVRVVALDKNFHMKCYKCEDCGKPLSIEADDNGCFPLDGHVLCRKCHTARAQT
B6: AP1B1 (protein, UniProt Q10567 1-949, looked up)
AP-1 complex subunit beta-1: MTDSKYFTTTKKGEIFELKAELNSDKKEKKKEAVKKVIASMTVGKDVSALFPDVVNCMQTDNLELKKLVYLYLMNYAKSQPDMAIMAVNTFVKDCEDPNPLIRALAVRTMGCIRVDKITEYLCEPLRKCLKDEDPYVRKTAAVCVAKLHDINAQLVEDQGFLDTLKDLISDSNPMVVANAVAALSEIAESHPSSNLLDLNPQSINKLLTALNECTEWGQIFILDCLANYMPKDDREAQSICERVTPRLSHANSAVVLSAVKVLMKFMEMLSKDLDYYGTLLKKLAPPLVTLLSAEPELQYVALRNINLIVQKRPEILKHEMKVFFVKYNDPIYVKLEKLDIMIRLASQANIAQVLAELKEYATEVDVDFVRKAVRAIGRCAIKVEQSAERCVSTLLDLIQTKVNYVVQEAIVVIKDIFRKYPNKYESVIATLCENLDSLDEPEARAAMIWIVGEYAERIDNADELLESFLEGFHDESTQVQLQLLTAIVKLFLKKPTETQELVQQVLSLATQDSDNPDLRDRGYIYWRLLSTDPVAAKEVVLAEKPLISEETDLIEPTLLDELICYIGTLASVYHKPPSAFVEGGRGVVHKSLPPRTASSESAESPETAPTGAPPGEQPDVIPAQGDLLGDLLNLDLGPPVSGPPLATSSVQMGAVDLLGGGLDSLMGDEPEGIGGTNFVAPPTAAVPANLGAPIGSGLSDLFDLTSGVGTLSGSYVAPKAVWLPAMKAKGLEISGTFTRQVGSISMDLQLTNKALQVMTDFAIQFNRNSFGLAPAAPLQVHAPLSPNQTVEISLPLSTVGSVMKMEPLNNLQVAVKNNIDVFYFSTLYPLHILFVEDGKMDRQMFLATWKDIPNENEAQFQIRDCPLNAEAASSKLQSSNIFTVAKRNVEGQDMLYQSLKLTNGIWVLAELRIQPGNPSCTDLELSLKCRAPEVSQHVYQAYETILKN

What follows are molecules tested on DYT-TOR1A MEF EVs (assay: Quantitative LC-MS/MS proteomics of EVs from drug-treated DYT-TOR1A MEF cultures (ritonavir, salubrinal)). Settings: EV protein abundance, DYT + RTV (ritonavir) vs DYT, direction compared with DYT/WT.
Type: cell-based, mouse
Set-up: key to RTV Corrective Direction / RTV Corrective Direction, Grwd1 / RTV Corrective Direction, Srrm2 / RTV Corrective Direction, Rbm17 / RTV Corrective Direction, Dcaf8 / RTV Corrective Direction, Edil3 / RTV Corrective Direction, Timp3 / RTV Corrective Direction, Heatr3 / RTV Corrective Direction, Brd4 / RTV Corrective Direction, P3h4 / RTV Corrective Direction, Pacsin3 / RTV Corrective Direction, Naa50 / RTV Corrective Direction, Lpar6 / RTV Corrective Direction, Ndrg1 / RTV Corrective Direction, Kntc1 / RTV Corrective Direction, Cdk11b / RTV Corrective Direction, Sumo1 / RTV Corrective Direction, Lsm4 / RTV Corrective Direction, Hmga2 / RTV Corrective Direction, Cstf1 / RTV Corrective Direction, Tes / RTV Corrective Direction, Sbno1 / RTV Corrective Direction, Unc119b / RTV Corrective Direction, Cfdp1 / RTV Corrective Direction, Sec61b: YES = protein abundance effect opposite to DYT/WT

| Molecule | RTV Corrective Direction |
| --- | --- |
| B1 | YES |
| B2 | YES |
| B3 | YES |

Same assay, conditions: EV protein abundance, ritonavir (RTV)-treated DYT vs DYT

| Molecule | DYT + RTV/DYT Cohen's d |
| --- | --- |
| B1 | 4.59 |
| B2 | 4.38 |
| B3 | 3.27 |

The molecules below were run on DYT1 patient plasma derived EVs (assay: Plasma-derived EV proteomics (ExoQuick ULTRA, DIA LC/MS/MS), DYT1 vs Healthy Controls). Settings: Hs. Plasma EVs (DYT1/WT); significance of genotype difference.
Set-up: species or system human
Experimental: Data was obtained for extracellular vesicles using previously acquired samples. The ExoQuick® ULTRA EV Isolation System was used to fractionate and enrich EVs from plasma. Isolated plasma EV samples were then submitted to proteomic analysis by the Duke Proteomics and Metabolomics Core Facility (DPMCF). At the DPMCF, quantitative (LC/MS/MS) was performed on 500 ng of each sample, using an EvoSep One UPLC system coupled to a Thermo Orbitrap Astral high-resolution accurate mass tandem mass spectrometer (Thermo). Briefly, the sample was eluted directly from an Evotip which was subjected to a low organic wash and then subjected to an analytical separation using a 1.7 μm EvoSep 150 um ID×15 cm endurance (EveoSep) column running an SPD30 gradient from approximately 5 to 30% acetonitrile with 0.1% formic acid with a column temperature of 50 C. Data collection on the Orbitrap Astral mass spectrometer was performed in a data-independent acquisition (DIA) mode of acquisition with a r=240,000 (@m/z 200) full MS scan from m/z 380-980 with a target AGC value of 4e5 ions. Fixed DIA, windows of 4 m/z from m/z 380 to 980 DIA MS/MS scans were acquired in the Astral with a target AGC value of 5e4 and a max fill time of 6 ms. HCD collision energy setting of 27% was used for all MS2 scans.

| Molecule | -LogP |
| --- | --- |
| B4 | 2.933 |
| B5 | 2.225 |
| B6 | 2.413 |

The molecules below were run on WT MEF EVs (assay: Quantitative LC-MS/MS proteomics of EVs from ISRIB-treated WT MEF cultures). Settings: EV protein abundance, ISRIB-treated WT vs WT.
Type: cell-based, mouse
Set-up: key to ISRIB and DYT Parallel Direction / ISRIB and DYT Parallel Direction, Ctdsp1 / ISRIB and DYT Parallel Direction, Pcdh19 / ISRIB and DYT Parallel Direction, Tspan7 / ISRIB and DYT Parallel Direction, Myo1e / ISRIB and DYT Parallel Direction, Plpp3 / ISRIB and DYT Parallel Direction, Sh3bp4 / ISRIB and DYT Parallel Direction, Dnajc7 / ISRIB and DYT Parallel Direction, Drg1 / ISRIB and DYT Parallel Direction, Maea: YES = protein abundance effect similar to DYT/WT

| Molecule | WT + ISRIB/WT Cohen's d |
| --- | --- |
| B1 | −1.19 |
| B2 | −0.34 |
| B3 | −0.19 |

Same assay, conditions: EV protein abundance, WT + ISRIB vs WT, direction compared with DYT/WT

| Molecule | ISRIB and DYT Parallel Direction |
| --- | --- |
| B1 | YES |
| B2 | YES |
| B3 | YES |
